Measurements taken from patent US20230374147A1 (HUMMINGBIRD BIOSCIENCE PTE, published 2023).
Positions count from the first letter of the chain named.

B1: 1C8-402 hIgG1 (antibody)
heavy: not shown
light: DIQMTQSPSSLSASVGDRVTITCRASQDISNYLSWYQQKPGKAPKLLMRYTSRLHSGVPSRFSGSGSGTDFTLTISSLEQEDFATYYCQQGNLFPPTFGGGTKVEIKRTVAAPSVFIFPPSDEQLKSGTASVVCLLNNFYPREAKVQWKVDNALQSGNSQESVTEQDSKDSTYSLSSTLTLSKADYEKHKVYACEVTHQGLSSPVTKSFNRGEC
notes: also called [90]
B2: 1C8-610 hIgG1 (antibody, V domains shown)
VH: QVQLVQSGAEVKKPGASVKVSCKASGYTFTNYVMFWVKQKPGQGLEWMGYITPYNDGTKYAQKFQGKVTMTSDKSTSTVYMELSSLTSEDTAVYYCARYDYEGSFDYWGQGTLVTVSS
VL: DIQMTQSPSSLSASVGDRVTITCRASQDISNYLNWYQQKPGKAPKLLMRYTSRFHSGVPSRFSGSGSGTDFTLTISSLEQEDFATYYCQQGNTFPPTSGGGTKVEIKR
notes: also called [93]; hu1C8-610
B3: 1C8-403 hIgG1 (antibody, V domains shown)
VH: B2 VH with F35H, T52L, Y101W
VL: B2 VL with Q27S, R49C, F54L, S98F
notes: also called [91]; hu1C8-403
B4: 1C8-507 hIgG1 (antibody, V domains shown)
VH: B2 VH with T30R, F35H, Y50W, T52L
VL: B2 VL with R53L, F54L, S98F
notes: also called [92]; hu1C8-507
B5: 539-SP2-H3 (antibody produced by the hybridoma) (antibody, V domains shown)
VH: EVQLQQSGPELVKPGASVKMSCKASGYTFTSYVIHWVKQKPGQGLEWIGYVLPYNDVIKYNEKFKGKATLTSDKSSSTAYMDLSSLTSEDSAVYYCARWGDFDEGIWFPYWGQGTLVTVSA
VL: DVLMTQTPLSLPVSLGDHASVSCRSSQSIVHTDGNTYLEWYLQKPGQSPKLLIYKVSNRFSGVPDRFSGSGSGTDFTLKISRVEAEDLGVYYCFQGSHVPWTFGGGTKLEIK
notes: Mouse antibody from B cell hybridoma (culture supernatant or IgG purified from it)
B6: 539-SP5-D7 (antibody produced by the hybridoma) (antibody, V domains shown)
VH: EVMLVDSGGNLVKPGGSLKLSCAASGFTFSNYVISWVRQTPEKRLEWVATISTVGTNTYYPDSVRGRFTISRDNAENTLYLQMSSLRSEDTAIYYCSRHKYGYDDPSYAMDYWGQGTSVTVSS
VL: QLVLTQSSSASFSLGASAKLTCTLSSQHSTYTIEWYQQQPLKPPKYVMELKKDGSHSTGDGIPDRFSGSSSGADRYLSISNIQAEDEAIYICGVGDTVKEQFVYVFGGGTKVTVL
notes: as for B5
B7: 552-LN2-E6 (antibody produced by the hybridoma) (antibody, V domains shown)
VH: QIQLVQSGPELKKPGETVKISCMASGYTFTDYSVRWVKQAPGKGLEWMGWINTETGEPTYADDFKGRFAFSLETSASTAYLQINNLKNEDTATYFCAISYYYALDYWGHGTSVTVSS
VL: DIVLTQSPASLTVSLGQRATISCRASKSVSTSVYSFLHWYQQKPGQPPKLLIYLASNLESGVPARFSGSGSGTDFTLNIHPVEEEDAATYYCQHSRELPRTFGGGTKLEIK
notes: as for B5
B8: 552-LN2-F8 (antibody produced by the hybridoma) (antibody, V domains shown)
VH: QIQLVQSGPELKKPGETVKISCKASGYTFTDYTMYWVKQAPGKGLKWMGWINTETGEPTYADDFKGRFVFSLETSANTAYLQINNLKNEDTATYFCAISYYYGMDYWGQGTSVTVTS
VL: B7 VL with V3I, T12A, S22T, V33G, S35N, L37V, H38Y
notes: as for B5
B9: 552-LN1-E9 (antibody produced by the hybridoma) (antibody, V domains shown)
VH: B8 VH with T33S, M34I, V69A, N77S, T78S, N85T, A97S, G103A, T116S
VL: B7 VL with T12A, V33G, L54F
notes: as for B5
B10: 552-LN1-F4 (antibody produced by the hybridoma) (antibody, V domains shown)
VH: B7 VH with D62H, N88D, A92S
VL: B7 VL with V33G, S35N, V62A
notes: as for B5

biological target: T1, Human HER3-His (Sino Biological, 10201-H08H) (human, UniProt P21860 20-643); test: ELISA, coated His-tagged antigen
T1 construct: Specificity control; also called Human HERS-His

Binder | binding result
B1 | no binding (tested: 3 µg/ml (highest concentration))
B2 | no binding (tested: 3 µg/ml (highest concentration))
B3 | no binding (tested: 3 µg/ml (highest concentration))
B4 | no binding (tested: 3 µg/ml (highest concentration))

biological target: T2, His-tagged cynomolgous macaque BCMA (Acro Biosystems, BCA-C52H7) (cynomolgus macaque, UniProt Q02223 1-54 (human entry)); test: ELISA, coated Cyno BCMA-His
T2 construct: Bought protein; also called cyno BCMA; CyBCMA; not shown: His tag

Binder | EC50 [nM]
B1 | 0.002
B2 | 0.089
B3 | 0.016
B4 | 0.038

biological target: T3, Cyno TACI-His (Sino Biological, 90976-C08H) (cynomolgus macaque, UniProt G7PTR7 1-165); test: ELISA, coated Cyno TACI-His
T3 construct: Bought protein; also called cynomolgous macaque TACI; CyTACI
T3 sequence: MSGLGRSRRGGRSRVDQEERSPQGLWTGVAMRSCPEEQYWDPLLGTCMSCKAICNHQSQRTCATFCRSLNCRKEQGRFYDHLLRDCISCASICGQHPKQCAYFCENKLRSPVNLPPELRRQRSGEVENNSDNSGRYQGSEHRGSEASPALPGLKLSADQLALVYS

Binder | EC50 [pM]
B1 | 4
B2 | 7
B3 | 34
B4 | 11

biological target: T4, Human BCMA-His (Sino Biological, 10620-H08H) (human, UniProt Q02223 1-54); test: ELISA, coated Human BCMA-His
T4 construct: not shown: His tag
T4 sequence: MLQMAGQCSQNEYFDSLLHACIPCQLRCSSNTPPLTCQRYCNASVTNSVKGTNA

Binder | EC50 [nM]
B1 | 0.11
B2 | 0.01
B3 | 0.062
B4 | 0.087

biological target: T5, recombinant his-tagged human TACI (Sinobiological cat #11937-H08H) (human, UniProt O14836 1-165); test: ELISA, coated Human TACI-His
T5 construct: Bought protein; also called Human TACI-His; huTACI; not shown: His tag
T5 sequence: T3 sequence with S21F, A52T, T64A, N70S, R77K, S139L, L160V

Binder | EC50 [nM]
B1 | 0.02
B2 | 0.01
B3 | 0.051
B4 | 0.021

biological target: T6, human BCMA expressed on cells (human, UniProt Q02223 1-184); test: flow cytometry, H929 cells (BCMA+)
T6 construct: the cell line is named under assay; also called wildtype human BCMA
T6 sequence: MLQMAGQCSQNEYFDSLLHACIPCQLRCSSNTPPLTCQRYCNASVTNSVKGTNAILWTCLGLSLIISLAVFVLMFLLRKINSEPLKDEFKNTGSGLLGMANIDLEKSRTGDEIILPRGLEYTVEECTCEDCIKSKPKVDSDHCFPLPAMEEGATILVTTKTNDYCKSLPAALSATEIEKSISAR

Binder | EC50 [nM]
B1 | 0.128
B2 | 0.0677
B3 | 0.134
B4 | 0.095

biological target: T7, His-tagged human BCMA (Acro Biosystems, Cat. #BCA-H522y) (human, UniProt Q02223 1-54); test: ELISA, hybridoma supernatant, coated His-tagged antigen
T7 construct: also called huBCMA; P1; not shown: His tag
T7 sequence: T4 sequence

Binder | ELISA values (OD 450 nm) [OD]
B5 | 0.813
B6 | 0.817
B7 | 0.832
B8 | 0.884
B9 | 0.836
B10 | 0.845

biological target: T2, His-tagged cynomolgous macaque BCMA …; test: as above

Binder | ELISA values (OD 450 nm) [OD]
B5 | 0.669
B6 | 0.252
B7 | 0.729
B8 | 1.83
B9 | 2.07
B10 | 1.89

Biological target: T8, His-tagged mouse BCMA (Acro Biosystems, BCA-M52H3) (mouse, UniProt O88472 1-49)
T8 construct: Bought protein; not shown: His tag
T8 chain: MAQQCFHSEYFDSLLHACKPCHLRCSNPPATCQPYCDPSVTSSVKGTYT
Test: as above

Binder | ELISA values (OD 450 nm) [OD]
B5 | 0.542
B7 | 0.002
B8 | 0.001
B9 | 0.017
B10 | 0.006

biological target: T7, His-tagged human BCMA (Acro Biosystems, …); test: BLI, IgG on HFC tip, His-tagged human BCMA 300-37.5 nM

Binder | Kd [µM] | koff [s⁻¹] | kon [M⁻¹ s⁻¹]
B1 | 0.000791 | 0.00312 | 3.95e+06
B2 | 0.00065 | 0.00307 | 4.71e+06
B3 | 0.0586 | 0.00288 | 49200
B4 | 0.0591 | 0.00172 | 29200

biological target: T5, recombinant his-tagged human TACI …; test: BLI, IgG on HFC tip, His-tagged human TACI 300-37.5 nM

Binder | Kd [µM] | koff [s⁻¹] | kon [M⁻¹ s⁻¹]
B1 | 0.0702 | 0.0576 | 821000
B2 | 0.0208 | 0.0205 | 988000
B3 | 1100 | 0.131 | 118
B4 | 0.61 | 0.163 | 267000

biological target: T2, His-tagged cynomolgous macaque BCMA …; test: BLI, IgG on HFC tip, His-tagged cynomolgus BCMA 300-37.5 nM

Binder | Kd [µM] | koff [s⁻¹] | kon [M⁻¹ s⁻¹]
B1 | 0.0024 | 0.00272 | 1.13e+06
B2 | 0.0228 | 0.0291 | 1.28e+06
B3 | 0.00654 | 0.00917 | 1.4e+06
B4 | 0.0217 | 0.0354 | 1.63e+06

biological target: T3, Cyno TACI-His (Sino Biological, …); test: BLI, IgG on HFC tip, His-tagged cynomolgus TACI 300-37.5 nM

Binder | Kd [µM] | koff [s⁻¹] | kon [M⁻¹ s⁻¹]
B1 | 0.00259 | 0.00186 | 718000
B2 | 0.00125 | 0.000839 | 673000

biological target: T7, His-tagged human BCMA (Acro Biosystems, …); test: ELISA, IgG purified from hybridoma supernatant, coated His-tagged antigen

Binder | EC50 [µg/mL]
B5 | 0.152
B6 | 0.0335
B7 | 0.0505
B8 | 0.0585
B9 | 0.071
B10 | 0.037

biological target: T6, human BCMA expressed on cells; test: flow cytometry, hybridoma supernatant, HEK293T cells stably expressing human BCMA

Binder | % Parent (percent positive cells) [%]
B5 | 74.3
B6 | 76.2
B7 | 60.8
B8 | 73.8
B9 | 75.4
B10 | 66.4

biological target: T6, human BCMA expressed on cells; test: flow cytometry, fixed RPMI 8226 cells (BCMA+, TACI+: the cells carry both targets)

Binder | EC50 [µM]
B1 | 0.000136
B2 | 0.000134
B3 | 0.000172
B4 | 0.000136
